# PMC6412877, “Novel Site-Specific Fatty Chain-Modified GLP-1 Receptor Agonist with Potent Antidiabetic Effects” (Molecules, 2019)
# Ends that are not written are not given here. fatty chain = not defined here
# Target: Glucagon-like peptide-1 receptor extracellular domain
# Test: SPR; Biacore 8K, according to the user's manual; who was immobilised and the conditions are not stated
row,Binder,Kd
1,FFYSSPSAYLEK(fatty chain)GGPSSGAPPPS (reading uncertain; also: fatty chain not given here) [PEP20],25 nM
2,FFYSSPSAKLETGGPSSGAPPPS [PEP13],98 nM
3,FFYSSPSAYLKTGGPSSGAPPPS [PEP15],33 nM
4,FFYSSPSAYLK(fatty chain)TGGPSSGAPPPS (reading uncertain; also: fatty chain not given here) [PEP19],91 nM
5,FFYSSPSAYLEKGGPSSGAPPPS [PEP16],23 nM
6,KQYSSPTAWLVGGPSSGAPPPS [PEP09],253 nM
7,FFYSSPSAK(fatty chain)LETGGPSSGAPPPS (reading uncertain; also: fatty chain not given here) [PEP17],158 nM
8,FFYSSPSAYK(fatty chain)ETGGPSSGAPPPS (reading uncertain; also: fatty chain not given here) [PEP18],62 nM
9,FFYSSPSAYKETGGPSSGAPPPS [PEP14],53 nM

# Target: Human GLP-1R (human) (UniProt P43220)
# Sequence (P43220 24-463): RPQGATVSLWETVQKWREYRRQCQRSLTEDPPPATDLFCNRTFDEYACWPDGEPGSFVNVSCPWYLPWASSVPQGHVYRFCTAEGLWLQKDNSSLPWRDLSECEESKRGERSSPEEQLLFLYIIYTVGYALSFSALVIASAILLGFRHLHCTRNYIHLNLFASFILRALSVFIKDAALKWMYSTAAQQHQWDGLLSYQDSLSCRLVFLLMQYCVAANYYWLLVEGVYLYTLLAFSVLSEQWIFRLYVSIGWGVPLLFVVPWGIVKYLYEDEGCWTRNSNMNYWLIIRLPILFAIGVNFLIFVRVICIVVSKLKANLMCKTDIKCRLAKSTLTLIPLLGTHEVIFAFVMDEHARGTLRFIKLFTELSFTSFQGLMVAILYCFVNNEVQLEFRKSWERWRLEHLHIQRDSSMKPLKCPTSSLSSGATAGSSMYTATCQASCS
# Test: not given
Binder,"EC50 (nM), Human GLP-1R activation, in vitro cell assay","Emax (%), Human GLP-1R activation, in vitro cell assay"
FFYSSPSAYLEK(fatty chain)GGPSSGAPPPS (reading uncertain; also: fatty chain not given here) [PEP20],0.062 nM,98%
FFYSSPSAKLETGGPSSGAPPPS [PEP13],0.064 nM,96%
FFYSSPSAYLKTGGPSSGAPPPS [PEP15],0.451 nM,78%
FFYSSPSAYLK(fatty chain)TGGPSSGAPPPS (reading uncertain; also: fatty chain not given here) [PEP19],0.152 nM,89%
FFYSSPSAYLEKGGPSSGAPPPS [PEP16],0.111 nM,92%
FFYSSPSAK(fatty chain)LETGGPSSGAPPPS (reading uncertain; also: fatty chain not given here) [PEP17],0.412 nM,79%
FFYSSPSAYK(fatty chain)ETGGPSSGAPPPS (reading uncertain; also: fatty chain not given here) [PEP18],0.391 nM,78%
FFYSSPSAYKETGGPSSGAPPPS [PEP14],0.051 nM,105%

# Target: Mouse GLP-1R (mouse) (UniProt O35659)
# Sequence (O35659 22-463): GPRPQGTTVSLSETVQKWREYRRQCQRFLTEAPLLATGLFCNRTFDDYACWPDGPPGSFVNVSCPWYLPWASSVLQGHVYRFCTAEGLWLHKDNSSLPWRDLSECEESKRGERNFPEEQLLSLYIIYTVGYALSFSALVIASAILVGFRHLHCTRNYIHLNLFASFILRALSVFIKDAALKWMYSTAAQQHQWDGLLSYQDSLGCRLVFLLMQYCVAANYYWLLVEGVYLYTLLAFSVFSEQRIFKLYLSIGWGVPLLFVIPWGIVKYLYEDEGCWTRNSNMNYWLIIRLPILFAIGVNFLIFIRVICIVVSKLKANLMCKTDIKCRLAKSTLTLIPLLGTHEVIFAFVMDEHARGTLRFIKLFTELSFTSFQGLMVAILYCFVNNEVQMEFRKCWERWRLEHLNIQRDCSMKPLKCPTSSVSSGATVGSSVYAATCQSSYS
# Test: not given
Binder,"EC50 (nM), Mouse GLP-1R activation, in vitro cell assay","Emax (%), Mouse GLP-1R activation, in vitro cell assay"
FFYSSPSAYLEK(fatty chain)GGPSSGAPPPS (reading uncertain; also: fatty chain not given here) [PEP20],0.051 nM,99%
FFYSSPSAKLETGGPSSGAPPPS [PEP13],0.051 nM,110%
FFYSSPSAYLKTGGPSSGAPPPS [PEP15],0.457 nM,73%
FFYSSPSAYLK(fatty chain)TGGPSSGAPPPS (reading uncertain; also: fatty chain not given here) [PEP19],0.212 nM,83%
FFYSSPSAYLEKGGPSSGAPPPS [PEP16],0.101 nM,93%
FFYSSPSAK(fatty chain)LETGGPSSGAPPPS (reading uncertain; also: fatty chain not given here) [PEP17],0.678 nM,68%
FFYSSPSAYK(fatty chain)ETGGPSSGAPPPS (reading uncertain; also: fatty chain not given here) [PEP18],0.351 nM,78%
FFYSSPSAYKETGGPSSGAPPPS [PEP14],0.034 nM,150%

# Target: Glucagon-like peptide-1 receptor extracellular domain
# Test: SPR; Biacore 8K, according to the user's manual; who was immobilised and the conditions are not stated
# Remark: another data set of the same source
row,Binder,Kd
1,FFYSSPSAYLEKGGPSSGAPPPS [PEP16],25 nM
